{
  "source": "paper PMC2185562",
  "molecular_target": "endogenous ezrin of LLC-PK1 cells (pig (endogenous in LLC-PK1)) (UniProt F1SB42)",
  "assay": "SEC",
  "note": "Values joined by “and” are separate entries in the source; they are usually repeats but may differ in a detail not shown here. Equal values may be shown once.",
  "data": [
    {"substance": "endogenous ezrin of LLC-PK1 cells (from UniProt F1SB42 1-551) (natural protein)", "values": [
      {"measurement": "percent of the ezrin of the fraction that is oligomers", "result": "15% and 28%"},
      {"measurement": "percent of the total cellular ezrin found as oligomers in this fraction", "result": "12.3% and 2.6%"}
    ]}
  ]
}
